Source: IntAct's records for PubMed 12080061

B1: 182 kDa tankyrase-1-binding protein (Homo sapiens), Q9C0C2 (parent)
chain: MKVSTLRESSAMASPLPREMEEELVPTGSEPGDTRAKPPVKPKPRALPAKPALPAKPSLLVPVGPRPPRGPLAELPSARKMNMLAGPQPYGGSKRPLPFAPRPAVEASTGGEATQETGKEEAGKEEPPPLTPPARCAAPGGVRKAPAPFRPASERFAATTVEEILAKMEQPRKEVLASPDRLWGSRLTFNHDGSSRYGPRTYGTTTAPRDEDGSTLFRGWSQEGPVKSPAECREEHSKTPEERSLPSDLAFNGDLAKAASSELPADISKPWIPSSPAPSSENGGPASPGLPAEASGSGPGSPHLHPPDKSSPCHSQLLEAQTPEASQASPCPAVTPSAPSAALPDEGSRHTPSPGLPAEGAPEAPRPSSPPPEVLEPHSLDQPPATSPRPLIEVGELLDLTRTFPSGGEEEAKGDAHLRPTSLVQRRFSEGVLQSPSQDQEKLGGSLAALPQGQGSQLALDRPFGAESNWSLSQSFEWTFPTRPSGLGVWRLDSPPPSPITEASEAAEAAEAGNLAVSSREEGVSQQGQGAGSAPSGSGSSWVQGDDPSMSLTQKGDGESQPQFPAVPLEPLPTTEGTPGLPLQQAEERYESQEPLAGQESPLPLATREAALPILEPVLGQEQPAAPDQPCVLFADAPEPGQALPVEEEAVTLARAETTQARTEAQDLCRASPEPPGPESSSRWLDDLLASPPPSGGGARRGAGAELKDTQSPSTCSEGLLGWSQKDLQSEFGITGDPQPSSFSPSSWCQGASQDYGLGGASPRGDPGLGERDWTSKYGQGAGEGSTREWASRCGIGQEEMEASSSQDQSKVSAPGVLTAQDRVVGKPAQLGTQRSQEADVQDWEFRKRDSQGTYSSRDAELQDQEFGKRDSLGTYSSRDVSLGDWEFGKRDSLGAYASQDANEQGQDLGKRDHHGRYSSQDADEQDWEFQKRDVSLGTYGSRAAEPQEQEFGKSAWIRDYSSGGSSRTLDAQDRSFGTRPLSSGFSPEEAQQQDEEFEKKIPSVEDSLGEGSRDAGRPGERGSGGLFSPSTAHVPDGALGQRDQSSWQNSDASQEVGGHQERQQAGAQGPGSADLEDGEMGKRGWVGEFSLSVGPQREAAFSPGQQDWSRDFCIEASERSYQFGIIGNDRVSGAGFSPSSKMEGGHFVPPGKTTAGSVDWTDQLGLRNLEVSSCVGSGGSSEARESAVGQMGWSGGLSLRDMNLTGCLESGGSEEPGGIGVGEKDWTSDVNVKSKDLAEVGEGGGHSQARESGVGQTDWSGVEAGEFLKSRERGVGQADWTPDLGLRNMAPGAVCSPGESKELGVGQMDWGNNLGLRDLEVTCDPDSGGSQGLRGCGVGQMDWTQDLAPQNVELFGAPSEAREHGVGGVSQCPEPGLRHNGSLSPGLEARDPLEARELGVGETSGPETQGEDYSSSSLEPHPADPGMETGEALSFGASPGRCPARPPPSGSQGLLEEMLAASSSKAVARRESAASGLGGLLEEEGAGAGAAQEEVLEPGRDSPPSWRPQPDGEASQTEDVDGTWGSSAARWSDQGPAQTSRRPSQGPPARSPSQDFSFIEDTEILDSAMYRSRANLGRKRGHRAPVIRPGGTLGLSEAADSDAHLFQDSTEPRASRVPSSDEEVVEEPQSRRTRMSLGTKGLKVNLFPGLSPSALKAKLRPRNRSAEEGELAESKSSQKESAVQRSKSCKVPGLGKPLTLPPKPEKSSGSEGSSPNWLQALKLKKKKV

Variants of: B1
Details: with tnks1_human TNKS

effect of a mutation on the interaction	Variant
disrupting interaction strength	G1513A
